What is called EC50 is the concentration at which the effect is half-maximal. One may read the Kd as the constant that tells how readily two partners part at equilibrium. Low readings indicate a tighter complex, high ones a looser complex.

The text below walks through data of patent publication US20250295803A1, “5T4 ANTIBODY-DRUG CONJUGATES AND USES THEREOF” (EXELIXIS, INC., priority 2022, published 2025).

In data set [1] the target is T1, unconjugated human TPBG/5T4 protein with a c-terminal polyhistidine and Avi tag (AcroBiosystems Cat. No. … (human, UniProt Q13641 32-355)).
T1 construct: Bought protein; also called Acro TPGH52E5; Acro Catalog No. TPGH52E; not shown: C-terminal polyhistidine and Avi tag
T1 sequence: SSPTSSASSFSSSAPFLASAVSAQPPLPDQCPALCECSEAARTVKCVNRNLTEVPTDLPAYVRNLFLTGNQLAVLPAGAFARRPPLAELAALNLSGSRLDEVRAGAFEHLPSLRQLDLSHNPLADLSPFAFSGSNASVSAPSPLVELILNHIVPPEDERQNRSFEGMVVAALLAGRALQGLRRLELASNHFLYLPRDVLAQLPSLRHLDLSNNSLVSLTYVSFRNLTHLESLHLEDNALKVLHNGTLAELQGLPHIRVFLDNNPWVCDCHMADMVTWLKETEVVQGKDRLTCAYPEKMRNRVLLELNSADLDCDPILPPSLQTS
The data set can be described thus: ELISA on coated human 5T4 His-Avi (Acro TPG-H52E5); antibody condition: pH 8.5 Day 1. As to the method: (§1) A. Normal Binding Unconjugated antibodies were tested for their ability to bind to human 5T4 (hu5T4) using ELISA. On Day 1, unconjugated human TPBG/5T4 protein with a c-terminal polyhistidine and Avi (AVITAG™) tag (AcroBiosystems (Newark, DE, USA), Cat. No. TPG-H52E5) was diluted 2 μg/mL in PBS, mixed thoroughly, plated 100 μL per well in a 96-well plate (Nunc MAXISORP®) and incubated overnight at 4° C.

For data set [2], the target named is T1, unconjugated human TPBG/5T4 protein …. Put plainly: ELISA on coated human 5T4 His-Avi (Acro TPG-H52E5); antibody condition: pH 5.5 Day 7. As to the method:
as §1

Data set [3] has the same target. Put plainly: Octet, antibody on AHC sensors, human 5T4 in solution (monovalent); Acro TPGH52E5 Lot B465-87AF1-JP. As to the method: (§2) Monovalent binding assays were employed to determine the relative affinity of each 5T4 binder obtained by the phage display in Example 1 to human 5T4. Human 5T4 was purchased from Acro Biosystems (Acro Catalog No. TPGH52E) and also produced separately. The monovalent interaction of binders to human 5T4 was monitored using an Octet (Pall ForteBio) instrument. For these assays, 36 nM antibody was immobilized on anti-human Fc (AHC) sensors in 1× kinetic buffer (ForteBio). The sensors were then dipped in wells containing a 3× serial dilution of human 5T4 ranging from 1 μM to 1.37 nM. The association was allowed to reach equilibrium. Sensors were then moved to wells containing only 1× kinetic buffer and allowed to dissociate to equilibrium. Association and dissociation rates were measured and from these, monovalent KDS were calculated using the onboard analysis software (ForteBio).
For orientation: In BLI a coated tip is dipped into the sample, and binding shifts an interference pattern.

For data set [4] the target is unchanged. The data set can be described thus: Octet, antibody on AHC sensors, human 5T4 in solution (monovalent); Acro TPGH52E5 Lot B465-87AF1-K2. As to the method:
as §2

A further data set concerns HEK-5T4 cells. The data set can be described thus: Cell binding (flow cytometry), HEK-5T4 cells. The class given is cell-based. Here is the method: (§3) Antibodies that were selected for binding to 5T4, for example, such as those described in Example 2, were evaluated for binding to cells that express 5T4. Cells were harvested at 70-90% confluence on the day of the assay. In a v-bottom 96-well plate (Costar 3897), 100,000 cells per well were incubated with 50 μL per well 8- or 12-point antibody dilution series for 30 minutes at +4° C. After incubation, cells were washed once with PBS by centrifugation at 200×g for 5 minutes. Cells were then incubated with 50 μL per well of Alexa Fluor 488 Goat anti-human IgG Fab (Jackson Immuno Research 109-547-003) at 1:100 dilution for 30 minutes at +4° C. Cells were washed twice with PBS by centrifugation at 200×g for 5 minutes and were acquired on iQue Screener Plus (Sartorius). Mean fluorescence intensities of BL1 (Alexa-Fluor-488) channel were plotted against antibody concentrations to generate a dose response curve and EC50 values.

In the next data set the test system is MCF-7 cells. The data set can be described thus: Cell binding (flow cytometry), MCF-7 cells. The class given is cell-based. As to the method:
as §3
On the technique in general: A flow cytometer gives signals particle by particle.

Data set [5] can be described thus: Protein thermal shift (melting temperature). The format is physicochemical. As to the method: Samples for protein thermal shift experiments (melting temperature) were prepared using the APPLIED BIOSYSTEMS™ PROTEIN THERMAL SHIFT™ Dye Kit (ThermoFisher Scientific Cat. No. 4461146). Data were collected using a QUANTSTUDIO™ 3 instrument (ThermoFisher Scientific Cat. No. A28567) with PROTEIN THERMAL SHIFT™ Software v1.4 (ThermoFisher Scientific Cat. No. 466038). Briefly, PROTEIN THERMAL SHIFT™ dye (1000×) was diluted in water to 8× in deionized water. Samples were prepared on ice by combining 5 μL of PROTEIN THERMAL SHIFT™ Buffer, 12.5 μL of protein solution, and 2.5 μL of the diluted PROTEIN THERMAL SHIFT™ Dye (8×) for a total reaction solution volume of 20 μL. The reaction solution was mixed 10 times with a pipette. Tubes were then spun down at 1000 rpm for 1 minute and then incubated on ice until analysis. Samples were loaded onto the instrument plate, which were then loaded into a QUANTSTUDIO™ 3 Real-Time PCR System instrument. Data was collected using the standard Melt Curve experiment with the following conditions: Step 1 temperature: 25° C. for 2 minutes; Step 2 temperature: 99° C. for 2 minutes with continuous fast ramp mode (Step 1: 1.6° C./sec; Step 2: 0.05° C./sec). Raw melting temperature data were deconvoluted within the QUANTSTUDIO™ 3 analysis software.

Another data set addresses T2, human 5T4 (Homo sapiens, UniProt Q13641).
T2 sequence (Q13641 32-355 limits assumed): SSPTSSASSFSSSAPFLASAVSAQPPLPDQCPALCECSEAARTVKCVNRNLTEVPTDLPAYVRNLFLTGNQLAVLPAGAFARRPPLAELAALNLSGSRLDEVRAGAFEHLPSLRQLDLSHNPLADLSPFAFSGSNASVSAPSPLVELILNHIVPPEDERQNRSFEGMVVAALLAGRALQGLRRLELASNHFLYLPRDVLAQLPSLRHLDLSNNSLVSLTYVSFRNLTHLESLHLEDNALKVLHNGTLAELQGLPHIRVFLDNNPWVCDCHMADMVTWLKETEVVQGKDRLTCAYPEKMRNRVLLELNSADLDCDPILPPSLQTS
Put plainly: Octet monovalent binding affinity assay. The arrangement: polyhistidine (C); Avi tag (C); purchased Acro Biosystems TPGH52E. To be noted: in all three lots of human 5T4. Here is the method: as §2

B1: mAbA17 (antibody, V domains shown)
VH: EVQLVESGGGLVQPGGSLRLSCAASGFTFSRYWIHWVRQAPGKGLEWVAAIFPYSGSTLYADSVKGRFTISADTSKNTAYLQMNSLRAEDTAVYYCARSPSRSILPSGLDYWGQGTLVTVSS
VL: DIQMTQSPSSLSASVGDRVTITCRASQSVSSAVAWYQQKPGKAPKLLIYSASSLYSGVPSRFSGSRSGTDFTLTISSLQPEDFATYYCQQGDGSPYTFGQGTKVEIKR
notes: also called Antibody mAbA17
Regarding B1, the EC50 in data set [1] is 174 pM; in data set [2], 190 pM. Also, the dissociation constant (Kd) in data set [3] amounted to 21100 pM; in data set [4] it was 2810 pM.

B2: mAbA15 (antibody, V domains shown)
VH: EVQLVESGGGLVQPGGSLRLSCAASGFTFSSYYIHWVRQAPGKGLEWVAYITSTGSYTEYADSVKGRFTISADTSKNTAYLQMNSLRAEDTAVYYCARYDRSTRYSGLDYWGQGTLVTVSS
VL: DIQMTQSPSSLSASVGDRVTITCRASQSVSSAVAWYQQKPGKAPKLLIYSASSLYSGVPSRFSGSRSGTDFTLTISSLQPEDFATYYCQQAYATPVTFGQGTKVEIKR
notes: also called Antibody mAbA15
Take B2: the concentration for a half-maximal effect (EC50) in data set [1] was 128 pM; in data set [2], 132 pM. The equilibrium dissociation constant (Kd) in data set [3] is 11200 pM; in data set [4], 3620 pM.

B3: mAbA17: 5T4 antibody comprising VH of SEQ ID NO:62 and VL of SEQ ID NO:63 (antibody, V domains shown)
VH: EVQLVESGGGLVQPGGSLRLSCAASGFTFSRYWIHWVRQAPGKGLEWVAAIFPYSGSTLYADSVKGRFTISADTSKNTAYLQMNSLRAEDTAVYYCARSPSRSILPSGLDYWGQGTLVTVSS
VL: DIQMTQSPSSLSASVGDRVTITCRASQSVSSAVAWYQQKPGKAPKLLIYSASSLYSGVPSRFSGSRSGTDFTLTISSLQPEDFATYYCQQGDGSPYTFGQGTKVEIK
modifications: Antibody mAbA17 VH Sequence; Antibody mAbA17 VL Sequence
As for B3, the “binding to HEK-5T4 cells” value in the data set with HEK-5T4 cells is recorded as “binding”. In the data set on MCF-7 cells, the “binding to MCF-7 cells” value was “binding”. Moreover, in data set [5], the “CH2 Tm” value was found to be 70.06 and the “Fab Tm” value was 81.92. For the same molecule, in the data set with human 5T4, the monovalent binding strength entry is on record as “strong or moderate binding”.

B4: mAbA4 (antibody, V domains shown)
VH: EVQLVESGGGLVQPGGSLRLSCAASGFTFSRYYIHWVRQAPGKGLEWVAFISPGGSYTYYADSVKGRFTISADTSKNTAYLQMNSLRAEDTAVYYCAREYYSMGVLDYWGQGTLVTVSS
VL: DIQMTQSPSSLSASVGDRVTITCRASQSVSSAVAWYQQKPGKAPKLLIYSASSLYSGVPSRFSGSRSGTDFTLTISSLQPEDFATYYCQQAYESPYTFGQGTKVEIKR
notes: also called Antibody mAbA4
For the molecule B4, the EC50 in data set [1] worked out at 127 pM; in data set [2] it was 124 pM. The dissociation constant (Kd) in data set [3] came to 30200 pM; in data set [4], 10 pM.

B5: mAbA4: 5T4 antibody comprising VH of SEQ ID NO:25 and VL of SEQ ID NO:26 (antibody, V domains shown)
VH: EVQLVESGGGLVQPGGSLRLSCAASGFTFSRYYIHWVRQAPGKGLEWVAFISPGGSYTYYADSVKGRFTISADTSKNTAYLQMNSLRAEDTAVYYCAREYYSMGVLDYWGQGTLVTVSS
VL: DIQMTQSPSSLSASVGDRVTITCRASQSVSSAVAWYQQKPGKAPKLLIYSASSLYSGVPSRFSGSRSGTDFTLTISSLQPEDFATYYCQQAYESPYTFGQGTKVEIK
modifications: Antibody mAbA4 VH Sequence; Antibody mAbA4 VL Sequence
As to B5, the “binding to HEK-5T4 cells” value with HEK-5T4 cells was “binding”. In addition, in the data set with MCF-7 cells, the “binding to MCF-7 cells” value is listed as “binding”. In addition, in data set [5], the “CH2 Tm” value is given as 69.18 and the “Fab Tm” value was determined as 89.94. In addition, the monovalent binding strength entry with human 5T4 is given as “strong or moderate binding”.

B6: mAbA15: 5T4 antibody comprising VH of SEQ ID NO:44 and VL of SEQ ID NO:45 (antibody, V domains shown)
VH: EVQLVESGGGLVQPGGSLRLSCAASGFTFSSYYIHWVRQAPGKGLEWVAYITSTGSYTEYADSVKGRFTISADTSKNTAYLQMNSLRAEDTAVYYCARYDRSTRYSGLDYWGQGTLVTVSS
VL: DIQMTQSPSSLSASVGDRVTITCRASQSVSSAVAWYQQKPGKAPKLLIYSASSLYSGVPSRFSGSRSGTDFTLTISSLQPEDFATYYCQQAYATPVTFGQGTKVEIK
modifications: Antibody mAbA15 VH Sequence; Antibody mAbA15 VL Sequence
For the molecule B6, the “binding to HEK-5T4 cells” value in the data set with HEK-5T4 cells is listed as “binding”. Further, the “binding to MCF-7 cells” value with MCF-7 cells is “binding”. Moreover, in data set [5], the “CH2 Tm” value was found to be 70.07 and the “Fab Tm” value is 86.38. For the same molecule, the monovalent binding strength entry in the data set with human 5T4 is reported as “strong or moderate binding”.
